Measured values reported in PMC5325477, “The single nucleotide variant rs12722489 determines differential estrogen receptor binding and enhancer properties of an IL2RA intronic region”.

Key:
[1] = test system: ERα (endogenous, MT-2 nuclear extract) (human (MT-2 cells)); assay: pull-down (anti-ERα, qPCR); details: normalized to 176 bp internal control DNA; EMSA: 10% glycerol, 80 mM KCl, 25 mM NaCl, 15 mM Tris pH 8.0, 0.18 mM EDTA, 1 mM MgCl2, 1.1 mM DTT, 50 uM Na3VO4, 33.3 ug/ml BSA, 150 ug/ml poly-dIdC, 20 min …
[2] = molecular target: ERα (purified recombinant) (human, UniProt P03372 1-595); assay: EMSA; below detection limit; EMSA: 10% glycerol, 80 mM KCl, 25 mM NaCl, 15 mM Tris pH 8.0, 0.18 mM EDTA, 1 mM MgCl2, 1.1 mM DTT, 50 uM Na3VO4, 33.3 ug/ml BSA, 150 ug/ml poly-dIdC, 20 min room temperature, gel at 4 C; pull-down: 60 mM KCl, 12 mM HEPES pH 8.0, 4 mM Tris pH 8.0, 0.5 mM EDTA, 5% glycerol, 1 mM DTT, salmon sperm DNA, on ice, then RIPA buffer, 4 C overnight; details: protein: recombinant; chain copies: 2; label: 32P (dATP, Klenow fill-in); blunt after Klenow fill-in (annealed oligos of 26 and 24 nt)
ERα (purified recombinant), sequence (P03372 whole entry): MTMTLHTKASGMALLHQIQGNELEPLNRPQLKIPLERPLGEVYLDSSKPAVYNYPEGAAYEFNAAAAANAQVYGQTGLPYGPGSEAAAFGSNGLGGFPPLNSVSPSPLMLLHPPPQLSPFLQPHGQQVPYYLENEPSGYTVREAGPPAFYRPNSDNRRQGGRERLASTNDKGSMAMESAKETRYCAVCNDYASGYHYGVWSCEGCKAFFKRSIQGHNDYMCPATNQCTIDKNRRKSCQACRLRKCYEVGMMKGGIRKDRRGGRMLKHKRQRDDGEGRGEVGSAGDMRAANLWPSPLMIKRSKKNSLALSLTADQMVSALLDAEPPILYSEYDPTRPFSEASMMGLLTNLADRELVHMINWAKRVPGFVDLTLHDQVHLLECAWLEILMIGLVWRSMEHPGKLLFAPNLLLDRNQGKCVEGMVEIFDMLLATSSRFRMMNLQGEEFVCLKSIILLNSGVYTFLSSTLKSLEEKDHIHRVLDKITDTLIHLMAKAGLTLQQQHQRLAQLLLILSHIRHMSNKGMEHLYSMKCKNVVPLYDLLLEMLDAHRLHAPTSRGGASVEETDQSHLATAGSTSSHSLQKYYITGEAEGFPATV

Molecule | binding signal (fold vs A variant) [1] | binding result [2]
IL2RA rs12722489 G, 189 bp PCR | 2 | –
IL2RA rs12722489 A, 32 bp (dsDNA) DNA 1: ACTTATCCAAGGATCTGAGTGGTCTTGGAGGG DNA 2: CCCTCCAAGACCACTCAGATCCTTGGATAAGT | – | no binding
